Ends that are not written are not given here. * marks the point of attachment. Crotonyl(E) = C/C=C/C(=O)*

Test [1] concerns the target Histone H3K4cr peptide (Homo sapiens) (UniProt P68431). Description: ITC. Particulars: cited from earlier work.
The target in test [2] is Histone H4K5ac/K8ac peptide (Homo sapiens) (UniProt P62805). Particulars: cited from earlier work.
Test [3] concerns the target Histone H4K5cr/K8cr peptide (Homo sapiens) (UniProt P62805). Particulars: cited from earlier work.
Another test deals with T1, AF9 YEATS domain (Homo sapiens, UniProt P42568).
T1 sequence (P42568 1-138): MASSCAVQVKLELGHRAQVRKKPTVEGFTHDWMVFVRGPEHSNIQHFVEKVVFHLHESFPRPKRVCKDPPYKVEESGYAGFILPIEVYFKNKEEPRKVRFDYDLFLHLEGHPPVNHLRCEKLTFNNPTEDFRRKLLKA
Description: 2D 1H-15N HSQC NMR binding to AF9 YEATS domain. Particulars: 30°C, H3 peptide added to AF9 YEATS domain.

In test [4] the target is T2, AF9 YEATS domain (residues 1–138) (human, UniProt P42568 1-138).
T2 sequence (looked up): T1 sequence (P42568 1-138)
Description: ITC.

A word on the Kd: it is the concentration at which binding is half-saturated. Sirt3 (from UniProt Q9NTG7): in test [1], the Kd is 25 µM.

TAF1 BD2 (from UniProt P21675): the Kd in test [2] is 50 µM; in test [3], 100 µM.

As to TKQTAR-K-SSGGKA [unmodified H3 peptide], at AF9 YEATS domain, the “changes of protein backbone amide resonances / binding” value was “did not cause any protein resonance changes”.

B1: histone H3K27cr peptide (residues 21–33) (peptide)
peptide: ATKAARK(Crotonyl(E))SAPATG
On to B1, for which the binding result in test [4] is given as “binds”.

B2: histone H3K27ac peptide (residues 21–33) (peptide)
peptide: ATKAARK(Ac)SAPATG
For the molecule B2, the binding result in test [4] is “binds”.

The values are drawn from article PMC5014688 (Structure (London, England : 1993), 2016).
